Data from US20150104459A1.

Experiments:
[1] = molecular target: M2 protein of influenza A/Wisconsin/67/05 (H3N2), on inactivated whole virions (influenza A virus A/Wisconsin/67/05 (H3N2)); assay: ELISA, positive control antibody on inactivated whole virions
[2] = molecular target: 23mer synthetic M2e peptide of A/Fort Worth/1/50 (influenza A virus A/Fort Worth/1/50 (H1N1)); assay: ELISA, 23mer M2e peptide coated at 1 ug/ml

TCN-032 (8I10) (antibody), sequence (VH): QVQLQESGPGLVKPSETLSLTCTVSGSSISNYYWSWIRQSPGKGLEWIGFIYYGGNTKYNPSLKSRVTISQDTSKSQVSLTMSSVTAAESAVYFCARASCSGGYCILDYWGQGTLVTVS
TCN-032 (8I10) (antibody), sequence (VL): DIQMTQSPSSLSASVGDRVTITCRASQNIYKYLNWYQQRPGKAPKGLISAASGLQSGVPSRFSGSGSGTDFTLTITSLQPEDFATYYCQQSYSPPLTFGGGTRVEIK

## TCN-032 (8I10) (antibody)
[1]
  ELISA virus binding (OD450): 3.62 OD450

## chimeric mouse V-region/human IgG1 kappa 14C2 antibody
[2]
  EC50: 0.01 µg/mL
